Experimental data from patent publication US20250186614A1, “COMPACT DRUG RESPONSIVE DOMAINS FOR REGULATION OF FUNCTION/ABUNDANCE AND DELIVERY OF POLYPEPTIDE PAYLOADS” (OBSIDIAN THERAPEUTICS, INC., priority 2022, published 2025).
Numbering of substitutions follows the chain as printed. Names and notes keep the numbering of the source. Like-named read-outs stand apart in the source and are kept apart here.

B1: FKBP-162 (protein)
chain: HCPIKSRKGDVLHAHYTGKLEDGTEFDSSLPRNQPFVFSLGTGERIKGWDQGLLGMCEGEKRKLVIPSELGYGERGWPPKIPGGATLVFEVELLKIE
modifications: C-terminal R deleted; Description of sequence: Construct Name: FKBP-162; Mutation(s): Q72R Q84E A117W DRD M54A del c-term R V85R
B2: FKBP-208 (protein)
chain: HCPIKSRKGDVLHAHYTGKLEDGTEFDSSLPRNQPFVFSLGTGERIKGWDQGLLGMCEGEKRKLVIPSELGYGERGWPPKIPGGATLVFRVELLKIER
modifications: Description of sequence: Construct Name: FKBP-208; Mutation(s): Q72R Q84E A117W V85R DRD M54A E130R
B3: FKBP-163 (protein)
chain: B2 chain with M56V, R90E
modifications: Description of sequence: Construct Name: FKBP-163; Mutation(s): Q72R Q84E A117W DRD M54A M96V V85R
B4: FKBP-219 (protein)
chain: B2 chain with E21G, K61G, R90E, K95E
modifications: Description of sequence: Construct Name: FKBP-219; Mutation(s): Q72R Q84E A117W V85R DRD M54A E61G K101G K135E
B5: FKBP-210 (protein)
chain: B2 chain with E58L, R90E
modifications: Description of sequence: Construct Name: FKBP-210; Mutation(s): Q72R Q84E A117W V85R DRD M54A E98L
B6: FKBP-220: FKBP13 DRD-AcGFP construct of Table 10 (protein)
chain: B2 chain with A14M, T24G, R90E
modifications: Description of sequence: Construct Name: FKBP-220; Mutation(s): Q72R Q84E A117W V85R DRD T25G
B7: FKBP-164 (protein)
chain: B2 chain with P78V, R90E
modifications: Description of sequence: Construct Name: FKBP-164; Mutation(s): Q72R Q84E A117W DRD M54A P118V V85R
B8: FKBP-229: FKBP13 DRD-AcGFP construct of Table 10 (protein)
chain: B2 chain with R90E, E97R
modifications: Description of sequence: Construct Name: FKBP-229; Mutation(s): Q72R Q84E A117W V85R DRD E137R M54A
B9: FKBP-209: FKBP13 DRD-AcGFP construct of Table 10 (protein)
chain: B2 chain with K61W, R90E
modifications: Description of sequence: Construct Name: FKBP-209; Mutation(s): Q72R Q84E A117W V85R DRD M54A K101W
B10: FKBP-218 (protein)
chain: B2 chain with E21G, R45V, K61G, R90E, K95E
modifications: Description of sequence: Construct Name: FKBP-218; Mutation(s): Q72R Q84E A117W DRD M54A E61G K101G K135E
B11: FKBP-222 (protein)
chain: B2 chain with P3W, A14M, T24R, R45V, R90E
modifications: Description of sequence: Construct Name: FKBP-222; Mutation(s): Q72R Q84E A117W DRD P4W T25R
B12: FKBP-230: FKBP13 DRD-AcGFP construct of Table 10 (protein)
chain: B2 chain with A14M, G23M, R45V, R90E
modifications: Description of sequence: Construct Name: FKBP-230; Mutation(s): Q72R Q84E A117W DRD G63M
B13: FKBP-217 (protein)
chain: B2 chain with E21Y, K61W, R90E, K95Y
modifications: Description of sequence: Construct Name: FKBP-217; Mutation(s): Q72R Q84E A117W V85R DRD M54A E61Y K101W K135Y
B14: FKBP-227 (protein)
chain: B2 chain with A14M, R45V, R90E, E97R
modifications: Description of sequence: Construct Name: FKBP-227; Mutation(s): Q72R Q84E A117W DRD E137R
B15: FKBP-225 (protein)
chain: B2 chain with P3R, A14M, R90E
modifications: Description of sequence: Construct Name: FKBP-225; Mutation(s): Q72R Q84E A117W V85R DRD P43R
B16: FKBP-223: FKBP13 DRD-AcGFP construct of Table 10 (protein)
chain: B2 chain with P3W, T24R, R90E
modifications: Description of sequence: Construct Name: FKBP-223; Mutation(s): Q72R Q84E A117W V85R DRD M54A P4W T25R
B17: FKBP-221 (protein)
chain: B2 chain with T24G, R90E
modifications: Description of sequence: Construct Name: FKBP-221; Mutation(s): Q72R Q84E A117W V85R DRD M54A T25G
B18: FKBP-231 (protein)
chain: B2 chain with A14M, G23M, R90E
modifications: Description of sequence: Construct Name: FKBP-231; Mutation(s): Q72R Q84E A117W V85R DRD G63M
B19: FKBP-226: FKBP13 DRD-AcGFP construct of Table 10 (protein)
chain: B2 chain with P3R, R90E
modifications: Description of sequence: Construct Name: FKBP-226; Mutation(s): Q72R Q84E A117W V85R DRD P43R M54A
B20: FKBP-212 (protein)
chain: B2 chain with H13L, R90E
modifications: Description of sequence: Construct Name: FKBP-212; Mutation(s): Q72R Q84E A117W V85R DRD M54A H53L
B21: FKBP-214: FKBP13 DRD-AcGFP construct of Table 10 (protein)
chain: B2 chain with P3R, E44G, R90E
modifications: Description of sequence: Construct Name: FKBP-214; Mutation(s): Q72R Q84G A117W V85R DRD P43R M54A
B22: FKBP-216 (protein)
chain: B2 chain with E21Y, R45V, K61W, R90E, K95Y
modifications: Description of sequence: Construct Name: FKBP-216; Mutation(s): Q72R Q84E A117W DRD M54A E61Y K101W K135Y
B23: FKBP-224 (protein)
chain: B2 chain with P3R, A14M, R45V, R90E
modifications: Description of sequence: Construct Name: FKBP-224; Mutation(s): Q72R Q84E A117W DRD P43R
B24: FKBP-213 (protein)
chain: B2 chain with P3R, E44G, R45V, R90E
modifications: Description of sequence: Construct Name: FKBP-213; Mutation(s): Q72R Q84G A117W DRD P43R M54A
B25: FKBP-211 (protein)
chain: B2 chain with D22S, R90E
modifications: Description of sequence: Construct Name: FKBP-211; Mutation(s): Q72R Q84E A117W V85R DRD M54A D62S

Assay: Example 4: dose response of FKBP constructs 160-255, Ec50, Ec90 and fold change (raw and normalized to mCherry)
Type: cell-based
Details: for FC (fold change): fold change during initial analysis
Description: Additional experiments were performed for constructs FKBP-160-292.

[1] = FKBP constructs 160-255, not normalized, read-out: EC90
[2] = normalized to mCherry, read-out: EC90 (Norm)

Molecule	EC90 [1]	FC (fold change)	EC90 [2]
B1	1800 nM	46.6	1870 nM
B2	4220 nM	87.2	4120 nM
B3	756 nM	29.4	1010 nM
B4		5.4	
B5	191 nM	32.8	208 nM
B6	156 nM	34.2	165 nM
B7	580 nM	42.7	621 nM
B8	484 nM	54.0	455 nM
B9	682 nM	56.0	777 nM
B10		4.46	
B11	612 nM	40.6	602 nM
B12	997 nM	49.0	890 nM
B13	16100 nM	36.8	17500 nM
B14	293 nM	29.0	278 nM
B15	25.4 nM	20.6	26 nM
B16	674 nM	52.5	713 nM
B17	495 nM	41.8	567 nM
B18	396 nM	39.9	399 nM
B19	44.6 nM	31.5	47 nM
B20	299 nM	40.2	317 nM
B21	388 nM	51.0	390 nM
B22	14100 nM	27.6	14500 nM
B23	78.6 nM	5.2	88.7 nM
B24	47.4 nM	28.8	47 nM
B25	452 nM	35.7	481 nM
